# Test results taken from patent publication US20040142357A1.
# Biological target: telomerase of HT1080 cells (telomerase-containing fraction, or cellular telomerase in stable HT1080 lines) (human) (UniProt O14746)
# Assay: cell-based or functional assay
# Chain of telomerase of HT1080 cells (telomerase-containing fraction, or cellular telomerase in stable HT1080 lines) (human) (O14746 whole entry): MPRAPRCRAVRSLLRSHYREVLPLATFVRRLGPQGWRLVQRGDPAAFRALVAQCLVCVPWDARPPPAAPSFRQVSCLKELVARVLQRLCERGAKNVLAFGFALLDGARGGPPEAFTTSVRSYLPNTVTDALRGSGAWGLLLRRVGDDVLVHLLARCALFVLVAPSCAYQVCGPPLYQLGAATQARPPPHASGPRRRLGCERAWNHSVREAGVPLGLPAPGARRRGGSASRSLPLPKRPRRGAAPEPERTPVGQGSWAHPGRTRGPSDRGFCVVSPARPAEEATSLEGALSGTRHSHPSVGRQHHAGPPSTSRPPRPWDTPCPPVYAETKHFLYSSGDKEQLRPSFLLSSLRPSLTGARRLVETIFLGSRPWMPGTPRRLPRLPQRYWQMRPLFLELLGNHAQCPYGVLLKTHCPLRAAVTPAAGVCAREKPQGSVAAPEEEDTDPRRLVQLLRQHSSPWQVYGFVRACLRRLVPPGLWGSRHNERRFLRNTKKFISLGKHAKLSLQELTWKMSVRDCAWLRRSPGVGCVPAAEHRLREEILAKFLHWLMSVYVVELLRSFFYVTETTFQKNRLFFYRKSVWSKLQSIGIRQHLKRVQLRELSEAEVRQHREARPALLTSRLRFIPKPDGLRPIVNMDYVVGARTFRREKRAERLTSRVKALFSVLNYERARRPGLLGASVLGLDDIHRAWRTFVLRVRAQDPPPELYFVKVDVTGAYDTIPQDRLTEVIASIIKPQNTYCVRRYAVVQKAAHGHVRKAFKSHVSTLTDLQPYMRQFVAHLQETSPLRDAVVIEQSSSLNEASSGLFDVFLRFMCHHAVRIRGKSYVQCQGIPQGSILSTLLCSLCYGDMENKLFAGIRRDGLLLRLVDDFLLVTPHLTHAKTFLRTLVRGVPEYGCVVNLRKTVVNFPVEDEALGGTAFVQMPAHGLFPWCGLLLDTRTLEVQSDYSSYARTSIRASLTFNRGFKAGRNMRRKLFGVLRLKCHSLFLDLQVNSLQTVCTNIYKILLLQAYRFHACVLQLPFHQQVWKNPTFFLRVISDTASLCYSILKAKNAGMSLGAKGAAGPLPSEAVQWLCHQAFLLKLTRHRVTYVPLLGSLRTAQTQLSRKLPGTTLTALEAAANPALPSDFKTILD
substance,measurement,value
"His-PinX1 (N-terminal His fusion of PinX1, pET28a) (from UniProt Q96BK5 1-328)",IC50 of inhibition of telomerase activity in vitro (TRAP assay),25 nM
